T1: EsCas13d, nuclease-dead (Eubacterium siraeum, UniProt B0MS50, R295A;H300A;R849A;H854A)
T1 sequence: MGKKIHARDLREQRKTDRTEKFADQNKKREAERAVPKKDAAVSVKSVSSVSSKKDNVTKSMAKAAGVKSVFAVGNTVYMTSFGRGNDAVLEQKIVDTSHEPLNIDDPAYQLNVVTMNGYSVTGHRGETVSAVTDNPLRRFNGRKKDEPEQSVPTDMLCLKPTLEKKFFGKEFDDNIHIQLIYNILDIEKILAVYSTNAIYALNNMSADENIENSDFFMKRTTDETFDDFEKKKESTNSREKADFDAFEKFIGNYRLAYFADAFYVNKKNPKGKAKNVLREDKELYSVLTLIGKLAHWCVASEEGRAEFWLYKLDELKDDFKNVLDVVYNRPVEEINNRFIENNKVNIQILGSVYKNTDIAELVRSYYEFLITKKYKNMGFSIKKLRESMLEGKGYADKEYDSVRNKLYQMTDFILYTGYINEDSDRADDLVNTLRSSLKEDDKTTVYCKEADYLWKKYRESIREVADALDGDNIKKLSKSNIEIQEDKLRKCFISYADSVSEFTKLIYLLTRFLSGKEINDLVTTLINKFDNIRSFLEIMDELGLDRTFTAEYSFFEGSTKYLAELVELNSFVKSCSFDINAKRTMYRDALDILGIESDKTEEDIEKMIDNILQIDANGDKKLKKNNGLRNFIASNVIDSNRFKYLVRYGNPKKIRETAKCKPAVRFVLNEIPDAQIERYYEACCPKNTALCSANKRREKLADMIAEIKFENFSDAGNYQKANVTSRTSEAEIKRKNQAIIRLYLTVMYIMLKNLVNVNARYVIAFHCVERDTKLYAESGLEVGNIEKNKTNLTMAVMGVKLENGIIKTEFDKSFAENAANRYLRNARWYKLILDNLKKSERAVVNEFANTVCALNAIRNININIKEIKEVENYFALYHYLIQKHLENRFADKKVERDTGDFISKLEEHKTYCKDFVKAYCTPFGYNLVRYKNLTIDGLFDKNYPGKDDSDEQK


Molecular target: T1, EsCas13d, nuclease-dead
Assay: crRNA (strand 1, pre-loaded); Mg2+; 40 mM Tris-HCl pH 7.5, 150 mM NaCl, 6 mM MgCl2, 1 mM DTT, 0.1% Tween-20, 0.2 mg/ml BSA; 25 C; 10 min per concentration, then washed
Details: tags: His6-TwinStrep-SUMO cleaved; N-terminal SNAP kept (SNAP-Surface 488); label: 3' end held by stalled T7 RNA polymerase

| Binder | Kd [nM] |
| --- | --- |
| target 1 C2A,U8A (mixed) RNA 1: CACCCGUGCAAAAAUGCAGGGGUCUAAAACUGAGCGGAUAACCUCUCUAUGG RNA 2: GGGAAUGGAUCCACAUCUACGAAUUCGUACCAUAGAGAGGUUAACCGCUAACCGAGAUCGGAAGAGCACACGU | 19.7 ± 0.8 |
| target 1 insG 3' of 4,insA 3' of 3 (mixed) RNA 1: CACCCGUGCAAAAAUGCAGGGGUCUAAAACUGAGCGGAUAACCUCUCUAUGG RNA 2: GGGAAUGGAUCCACAUCUACGAAUUCGUACCAUAGAGAGGUUAUCCGCGUACACCGAGAUCGGAAGAGCACACGU | 6.5 ± 0.5 |
| target 2 MT 5'PFS GCC 3'PFS CAC (mixed) RNA 1: CACCCGUGCAAAAUUGCAGGGGUCUAAAACCUUCUCCAAAUUGUUUCAUCCU RNA 2: GGGAAUGGAUCCACAUCUACGAAUUCGCCAGGAUGAAACAAUUUGGAGAAGCACAGAUCGGAAGAGCACACGU | 13 ± 1.7 |
| target 2 MT 5'PFS GUC 3'PFS AAC (mixed) RNA 1: CACCCGUGCAAAAUUGCAGGGGUCUAAAACCUUCUCCAAAUUGUUUCAUCCU RNA 2: GGGAAUGGAUCCACAUCUACGAAUUCGUCAGGAUGAAACAAUUUGGAGAAGAACAGAUCGGAAGAGCACACGU | 9.7 ± 1.5 |
| target 2 MT 5'PFS GUC 3'PFS AAA (mixed) RNA 1: CACCCGUGCAAAAUUGCAGGGGUCUAAAACCUUCUCCAAAUUGUUUCAUCCU RNA 2: GGGAAUGGAUCCACAUCUACGAAUUCGUCAGGAUGAAACAAUUUGGAGAAGAAAAGAUCGGAAGAGCACACGU | 8.8 ± 1.5 |
| target 2 MT 5'PFS CAG 3'PFS AUA (mixed) RNA 1: CACCCGUGCAAAAUUGCAGGGGUCUAAAACCUUCUCCAAAUUGUUUCAUCCU RNA 2: GGGAAUGGAUCCACAUCUACGAAUUCCAGAGGAUGAAACAAUUUGGAGAAGAUAAGAUCGGAAGAGCACACGU | 4.5 ± 1 |
| target 2 MT 5'PFS GAG 3'PFS UCG (mixed) RNA 1: CACCCGUGCAAAAUUGCAGGGGUCUAAAACCUUCUCCAAAUUGUUUCAUCCU RNA 2: GGGAAUGGAUCCACAUCUACGAAUUCGAGAGGAUGAAACAAUUUGGAGAAGUCGAGAUCGGAAGAGCACACGU | 10.7 ± 0.9 |
| target 2 MT 5'PFS UCG 3'PFS AAG (mixed) RNA 1: CACCCGUGCAAAAUUGCAGGGGUCUAAAACCUUCUCCAAAUUGUUUCAUCCU RNA 2: GGGAAUGGAUCCACAUCUACGAAUUCUCGAGGAUGAAACAAUUUGGAGAAGAAGAGAUCGGAAGAGCACACGU | 32 ± 11 |
| target 2 MT 5'PFS UUU 3'PFS AUU (mixed) RNA 1: CACCCGUGCAAAAUUGCAGGGGUCUAAAACCUUCUCCAAAUUGUUUCAUCCU RNA 2: GGGAAUGGAUCCACAUCUACGAAUUCUUUAGGAUGAAACAAUUUGGAGAAGAUUAGAUCGGAAGAGCACACGU | 9.1 ± 1 |
| target 2 MT 5'PFS GAG 3'PFS UCC (mixed) RNA 1: CACCCGUGCAAAAUUGCAGGGGUCUAAAACCUUCUCCAAAUUGUUUCAUCCU RNA 2: GGGAAUGGAUCCACAUCUACGAAUUCGAGAGGAUGAAACAAUUUGGAGAAGUCCAGAUCGGAAGAGCACACGU | 29 ± 5 |
| target 2 MT 5'PFS UUU 3'PFS AUC (mixed) RNA 1: CACCCGUGCAAAAUUGCAGGGGUCUAAAACCUUCUCCAAAUUGUUUCAUCCU RNA 2: GGGAAUGGAUCCACAUCUACGAAUUCUUUAGGAUGAAACAAUUUGGAGAAGAUCAGAUCGGAAGAGCACACGU | 6.9 ± 0.8 |
| target 2 MT 5'PFS UCG 3'PFS AAU (mixed) RNA 1: CACCCGUGCAAAAUUGCAGGGGUCUAAAACCUUCUCCAAAUUGUUUCAUCCU RNA 2: GGGAAUGGAUCCACAUCUACGAAUUCUCGAGGAUGAAACAAUUUGGAGAAGAAUAGAUCGGAAGAGCACACGU | ~24 |
| target 2 MT 5'PFS CAG 3'PFS AUC (mixed) RNA 1: CACCCGUGCAAAAUUGCAGGGGUCUAAAACCUUCUCCAAAUUGUUUCAUCCU RNA 2: GGGAAUGGAUCCACAUCUACGAAUUCCAGAGGAUGAAACAAUUUGGAGAAGAUCAGAUCGGAAGAGCACACGU | 7 ± 1.7 |
| target 2 MT 5'PFS AUG 3'PFS ACC (mixed) RNA 1: CACCCGUGCAAAAUUGCAGGGGUCUAAAACCUUCUCCAAAUUGUUUCAUCCU RNA 2: GGGAAUGGAUCCACAUCUACGAAUUCAUGAGGAUGAAACAAUUUGGAGAAGACCAGAUCGGAAGAGCACACGU | 18.8 ± 3.1 |
| target 2 MT 5'PFS AUG 3'PFS ACU (mixed) RNA 1: CACCCGUGCAAAAUUGCAGGGGUCUAAAACCUUCUCCAAAUUGUUUCAUCCU RNA 2: GGGAAUGGAUCCACAUCUACGAAUUCAUGAGGAUGAAACAAUUUGGAGAAGACUAGAUCGGAAGAGCACACGU | 11.6 ± 1.9 |
| target 2 MT 5'PFS UUU 3'PFS AUG (mixed) RNA 1: CACCCGUGCAAAAUUGCAGGGGUCUAAAACCUUCUCCAAAUUGUUUCAUCCU RNA 2: GGGAAUGGAUCCACAUCUACGAAUUCUUUAGGAUGAAACAAUUUGGAGAAGAUGAGAUCGGAAGAGCACACGU | 7.5 ± 0.9 |
| target 2 MT 5'PFS GAG 3'PFS UCU (mixed) RNA 1: CACCCGUGCAAAAUUGCAGGGGUCUAAAACCUUCUCCAAAUUGUUUCAUCCU RNA 2: GGGAAUGGAUCCACAUCUACGAAUUCGAGAGGAUGAAACAAUUUGGAGAAGUCUAGAUCGGAAGAGCACACGU | 16 ± 2.2 |
| target 2 MT 5'PFS UAA 3'PFS CAA (mixed) RNA 1: CACCCGUGCAAAAUUGCAGGGGUCUAAAACCUUCUCCAAAUUGUUUCAUCCU RNA 2: GGGAAUGGAUCCACAUCUACGAAUUCUAAAGGAUGAAACAAUUUGGAGAAGCAAAGAUCGGAAGAGCACACGU | 2.4 ± 0.4 |
| target 2 MT 5'PFS UGC 3'PFS GGC (mixed) RNA 1: CACCCGUGCAAAAUUGCAGGGGUCUAAAACCUUCUCCAAAUUGUUUCAUCCU RNA 2: GGGAAUGGAUCCACAUCUACGAAUUCUGCAGGAUGAAACAAUUUGGAGAAGGGCAGAUCGGAAGAGCACACGU | 43 ± 10 |
| target 2 MT 5'PFS UAA 3'PFS CAC (mixed) RNA 1: CACCCGUGCAAAAUUGCAGGGGUCUAAAACCUUCUCCAAAUUGUUUCAUCCU RNA 2: GGGAAUGGAUCCACAUCUACGAAUUCUAAAGGAUGAAACAAUUUGGAGAAGCACAGAUCGGAAGAGCACACGU | 5.6 ± 1.8 |
| target 2 MT 5'PFS GUC 3'PFS AAG (mixed) RNA 1: CACCCGUGCAAAAUUGCAGGGGUCUAAAACCUUCUCCAAAUUGUUUCAUCCU RNA 2: GGGAAUGGAUCCACAUCUACGAAUUCGUCAGGAUGAAACAAUUUGGAGAAGAAGAGAUCGGAAGAGCACACGU | 16.8 ± 3.5 |
| target 2 MT 5'PFS AUG 3'PFS ACA (mixed) RNA 1: CACCCGUGCAAAAUUGCAGGGGUCUAAAACCUUCUCCAAAUUGUUUCAUCCU RNA 2: GGGAAUGGAUCCACAUCUACGAAUUCAUGAGGAUGAAACAAUUUGGAGAAGACAAGAUCGGAAGAGCACACGU | 13 ± 3.2 |
| target 2 MT 5'PFS UCG 3'PFS AAA (mixed) RNA 1: CACCCGUGCAAAAUUGCAGGGGUCUAAAACCUUCUCCAAAUUGUUUCAUCCU RNA 2: GGGAAUGGAUCCACAUCUACGAAUUCUCGAGGAUGAAACAAUUUGGAGAAGAAAAGAUCGGAAGAGCACACGU | 16 ± 5 |
| target 2 MT 5'PFS GCC 3'PFS CAA (mixed) RNA 1: CACCCGUGCAAAAUUGCAGGGGUCUAAAACCUUCUCCAAAUUGUUUCAUCCU RNA 2: GGGAAUGGAUCCACAUCUACGAAUUCGCCAGGAUGAAACAAUUUGGAGAAGCAAAGAUCGGAAGAGCACACGU | ~27 |
| target 2 MT 5'PFS GUC 3'PFS AAU (mixed) RNA 1: CACCCGUGCAAAAUUGCAGGGGUCUAAAACCUUCUCCAAAUUGUUUCAUCCU RNA 2: GGGAAUGGAUCCACAUCUACGAAUUCGUCAGGAUGAAACAAUUUGGAGAAGAAUAGAUCGGAAGAGCACACGU | 12.8 ± 2.8 |
| target 2 MT 5'PFS GAG 3'PFS UCA (mixed) RNA 1: CACCCGUGCAAAAUUGCAGGGGUCUAAAACCUUCUCCAAAUUGUUUCAUCCU RNA 2: GGGAAUGGAUCCACAUCUACGAAUUCGAGAGGAUGAAACAAUUUGGAGAAGUCAAGAUCGGAAGAGCACACGU | 8 ± 0.8 |
| target 2 MT 5'PFS UUU 3'PFS AUA (mixed) RNA 1: CACCCGUGCAAAAUUGCAGGGGUCUAAAACCUUCUCCAAAUUGUUUCAUCCU RNA 2: GGGAAUGGAUCCACAUCUACGAAUUCUUUAGGAUGAAACAAUUUGGAGAAGAUAAGAUCGGAAGAGCACACGU | 6.5 ± 0.5 |
| target 2 MT 5'PFS UAA 3'PFS CAU (mixed) RNA 1: CACCCGUGCAAAAUUGCAGGGGUCUAAAACCUUCUCCAAAUUGUUUCAUCCU RNA 2: GGGAAUGGAUCCACAUCUACGAAUUCUAAAGGAUGAAACAAUUUGGAGAAGCAUAGAUCGGAAGAGCACACGU | 4.9 ± 0.8 |

Source: paper PMC10786891, “Massively parallel profiling of RNA-targeting CRISPR-Cas13d”
